Assay results: patent US11467166B2, “Compositions and methods for detecting molecule-molecule interactions” (ShanghaiTech University, priority 2017, dated 2022)
Each block holds one substance with its values, some of them ahead of it.

Legend:
His-MATH = biological target: T1, His-MATH (Homo sapiens, UniProt O43791); assay: Peptide competition assay in the in vitro Pup modification of MATH by PUP-IT^pep1; assay type: biochemical; conditions: free peptide added at 1-512 μM; 0.2 μM His-MATH, 8 μM Pup(E); anti-His immunoblot
T1 construct: made in house; host or cells: E. coli BL21(DE3)
T1 sequence (O43791 31-161 limits assumed): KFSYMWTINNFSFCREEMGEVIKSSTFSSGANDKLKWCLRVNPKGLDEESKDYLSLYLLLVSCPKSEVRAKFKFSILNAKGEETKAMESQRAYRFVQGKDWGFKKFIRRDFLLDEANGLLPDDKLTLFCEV
Method: Pup modification were assayed at 37° C. for 30 min with purified recombinant proteins in a 20 μl reaction volume with 20 mM Tris 8.0, 100 mM NaCl, 10 mM ATP, and 15 mM MgCl2. The reaction also contains purified 1 μM PUP-IT, 10 μM Pup(E) or 10 mM bio-DE28. All the reactions were stopped by direct addition of 6×SDS loading buffer and analyzed on 4-20% SDS-PAGE gels (Genescript, cat. #M42015C).
Peptide competition assay (as in FIG. 2d) was performed in the presence of different peptides. Free pep1 (sequence […], SEQ ID NO: 12) and control peptide (sequence […], SEQ ID NO: 15) were synthesized and purified to >98% pure, confirmed by mass spectrometry. The peptides were dissolved in water and pH adjusted with Tris buffer to 7, stored as 2 mM stock in −80° C. The reactions were set up with 1 μM pup^SBC1, 0.2 μM His-MATH, and 8 μM Pup(E). Different amount of free pep1 or control peptide was added to each reaction to make the final peptide concentration at 1, 2, 4, 8, 16, 32, 64, 128, 256, and 512 μM. All the reactions were stopped by direct addition of 6×SDS loading buffer and analyzed on 4-20% SDS-PAGE gels, followed by immune-blotting with anti-His antibody to identify both unmodified and modified MATH. The density of modified MATH was quantified with ImageJ and then plotted with GraphPad Prism 6.

[1] = biological target: MATH domain from human SPOP (Homo sapiens, UniProt O43791); conditions: peptide binding to MATH domain from human SPOP; known values; read-out: dissociation constant (Kd); cited from earlier work
Sequence of MATH domain from human SPOP (O43791 31-161 limits assumed): as above

CD86/CD80 = conditions: CD28 interaction with CD86/CD80; reported; cited from earlier work

inhibition of MATH modification (His-MATH): could not be fully inhibited
Substance: pep1(mut): mutated pep1 peptide LACDEDTAAASSSTA (SEQ ID NO: 15), known to have defect on MATH binding

Substance: SPOP substrate-derived MATH-binding peptide LACDEVTSTTSSSTA (SEQ ID NO: 12) [pep1]
Kd [1]: 3.7 µM
inhibition of MATH modification (His-MATH): dose-dependent inhibition of MATH modification

Substance: SPOP substrate-derived MATH-binding peptide SELDSPSSTSSSSGI (SEQ ID NO: 14), the weakest binder [pep3]
Kd [1]: > 250 µM

Substance: SPOP substrate-derived MATH-binding peptide TLFPDVSSSTHPYHG (SEQ ID NO: 13) [pep2]
Kd [1]: 76 µM

Substance: CD28: co-stimulating receptor normally expressed on the surface of T cells
Kd (CD86/CD80): 4 µM
